PMC4117426, “SlmA Antagonism of FtsZ Assembly Employs a Two-pronged Mechanism like MinCD” (PLoS Genetics, 2014)
Positions count from the first letter of the chain named.

Columns and labels:
FtsZ-D86N = target: T1, FtsZ-D86N (E. coli, UniProt P0A9A6 1-383, D86N); test: BLI; biotinylated SBS17-30mer (50 nM) on streptavidin tips, loaded with 4 µM SlmA or SlmA mutant; FtsZ or variants (4 µM, preincubated with 1 mM GDP) or peptides (up to 320 µM) in solution; 1× Pol buffer, room temperature; conditions: both partners purified
T1 construct: FtsZ, E. coli, untagged, with D86N; pSEB160 derivative
T1 sequence (looked up): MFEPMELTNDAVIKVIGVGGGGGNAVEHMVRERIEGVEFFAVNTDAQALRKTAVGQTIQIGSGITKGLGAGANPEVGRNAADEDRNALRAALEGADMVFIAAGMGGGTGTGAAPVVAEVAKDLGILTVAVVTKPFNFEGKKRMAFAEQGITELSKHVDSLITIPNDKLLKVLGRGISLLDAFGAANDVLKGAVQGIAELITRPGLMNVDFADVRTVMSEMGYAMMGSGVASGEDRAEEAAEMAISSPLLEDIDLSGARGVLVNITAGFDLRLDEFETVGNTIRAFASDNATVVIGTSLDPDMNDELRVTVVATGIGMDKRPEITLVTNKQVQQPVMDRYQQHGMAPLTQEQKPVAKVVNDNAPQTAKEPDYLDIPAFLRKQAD

FtsZ-K190V = target: T2, FtsZ-K190V (E. coli, UniProt P0A9A6 1-383, K190V); test: co-sedimentation; stable FtsZ polymers formed with GMPCPP (1 mM); proteins 5 µM, SBS17-30mer DNA 2 µM; Pol buffer (50 mM HEPES-NaOH pH 8.0, 200 mM KCl, 10 mM MgCl2); 80,000 rpm 15 min 25°C; supernatant and pellet by SDS-PAGE; conditions: both partners purified
T2 construct: FtsZ, E. coli, untagged, with K190V; pSEB160 derivative
T2 sequence (looked up): T1 sequence (looked up) with N86D, K190V

- binding result (FtsZ-D86N): binds
- binding result (FtsZ-K190V): binds
B1: 6×His-SlmA (natural protein, E. coli, UniProt P0C093 1-198, looked up)
chain: MAEKQTAKRNRREEILQSLALMLESSDGSQRITTAKLAASVGVSEAALYRHFPSKTRMFDSLIEFIEDSLITRINLILKDEKDTTARLRLIVLLLLGFGERNPGLTRILTGHALMFEQDRLQGRINQLFERIEAQLRQVLREKRMREGEGYTTDETLLASQILAFCEGMLSRFVRSEFKYRPTDDFDARWPLIAAQLQ
notes: SlmA, E. coli; also called SlmA-WT; His tagged SlmA; source: E. coli JS238/pQE80-slmA, purified (Ni-NTA)
